The target of experiment [1] is mChe-INPP5E (UniProt Q9NRR6). The experiment is described as follows: VIP assay (fluorescence intensity of mChe-INPP5E on GST-anti-GFP Nb beads). The settings on record: lysates of HEK293T cells coexpressing both constructs; three independent experiments; parent: 100; read off a plot.
Experiment [2] deals with mChe-INPP5E (UniProt Q9NRR6). The experiment is described as follows: immunoblotting of anti-GFP Nb precipitates (band intensity of mChe-INPP5E). To be noted: lysates of HEK293T cells coexpressing both constructs; three independent experiments; parent: 100; read off a plot.

mChe-INPP5E, sequence (Q9NRR6 whole entry): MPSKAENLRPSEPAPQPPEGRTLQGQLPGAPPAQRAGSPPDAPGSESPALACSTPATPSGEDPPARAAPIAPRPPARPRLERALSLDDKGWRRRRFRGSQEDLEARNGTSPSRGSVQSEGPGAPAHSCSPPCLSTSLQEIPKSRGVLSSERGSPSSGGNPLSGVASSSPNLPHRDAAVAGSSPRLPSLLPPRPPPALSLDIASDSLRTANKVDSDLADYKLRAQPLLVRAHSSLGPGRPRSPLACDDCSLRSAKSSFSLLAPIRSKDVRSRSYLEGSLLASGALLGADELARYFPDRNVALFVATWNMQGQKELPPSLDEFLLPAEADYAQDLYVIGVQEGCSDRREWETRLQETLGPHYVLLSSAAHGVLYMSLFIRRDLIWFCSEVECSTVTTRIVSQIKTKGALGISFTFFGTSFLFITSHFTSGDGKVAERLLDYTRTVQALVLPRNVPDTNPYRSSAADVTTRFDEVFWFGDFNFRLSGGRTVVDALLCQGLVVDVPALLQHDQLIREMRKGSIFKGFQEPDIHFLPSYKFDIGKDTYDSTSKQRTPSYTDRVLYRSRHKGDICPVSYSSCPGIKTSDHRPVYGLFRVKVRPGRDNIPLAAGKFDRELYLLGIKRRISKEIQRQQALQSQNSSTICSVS
ARL13B(WT)-EGFP, Q3SXY8 AAEA (RVEP mutated to AAEA), sequence (Q3SXY8 other isoform, or with tags, fused parts or gaps AAEA (RVEP mutated to AAEA)): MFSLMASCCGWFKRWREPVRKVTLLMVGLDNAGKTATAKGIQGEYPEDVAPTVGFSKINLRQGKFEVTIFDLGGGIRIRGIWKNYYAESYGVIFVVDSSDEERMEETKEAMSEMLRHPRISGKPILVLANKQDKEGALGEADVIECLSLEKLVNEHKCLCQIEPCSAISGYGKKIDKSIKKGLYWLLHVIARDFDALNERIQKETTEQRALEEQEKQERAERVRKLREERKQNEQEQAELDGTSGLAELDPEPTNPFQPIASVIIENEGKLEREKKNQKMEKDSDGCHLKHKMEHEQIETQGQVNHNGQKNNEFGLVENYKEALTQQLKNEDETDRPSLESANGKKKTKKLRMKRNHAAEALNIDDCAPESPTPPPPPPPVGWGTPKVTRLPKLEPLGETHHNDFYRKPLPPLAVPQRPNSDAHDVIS

Turning to “ARL13B(WT)-EGFP, Q3SXY8 AAEA (RVEP mutated to AAEA)”, the percent of parent (% of ARL13B(WT)-EGFP) with mChe-INPP5E [1] is 100; with mChe-INPP5E [2] it was 110.
